# Measured values reported in the nanobody polyreactivity screen of Harvey et al. (2022).
# Assay: yeast display, Sf9 membrane polyspecificity reagent, FACS + sequencing; frameworks hold sequencing errors
# Procedure, shortened: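 Synthetic nanobody libraries on Saccharomyces cerevisiae BJ5465 were galactose-induced for 36–48 hours, stained 1 hour at 4 °C with 10% biotinylated, detergent-solubilized Sf9 membrane reagent and enriched on streptavidin microbeads. FACS then separated cells into low and high (top ~1%) gates by anti-HA (expression) and streptavidin (reagent binding) fluorescence. Genes were colony-PCR amplified, MiSeq 2 × 250 sequenced and CDR-length filtered. A clone's polyreactivity label is that of its gate of origin.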
row,Sequence,polyreactivity (PSR sort gate)
1,QVQLVESGGGLVQAGGSLRLSCAASGRTFERNALGWYRQAPGKEREFVAAITEIGGSTYYADSVKGRFTISRDNAMNTVYLQMNSLKPEDTAVYYCAKDGTYSPYDYWGQGTQVTVSS,low polyreactivity
2,QVQLVESGGGLVQAGGSLRLSCAASGFTFFTYAMGWYRQAPGNERELVAAISSSGDRTYYADSVKGRFTISRDNAKNTVYLQMNSLKPEDTAVYYCAVYKYYHFYYWGQGTQVTVSS,high polyreactivity
3,QVQLVESGGGLVQAGGSLRLSCAASGRIFYKNDLGWYRQAPGTETELVATLTYSDGTTYYADSVKGRFTISRDNAKNTVYLQMNSLKPEDTAVYYCAAQTDSVESDYWGQGTQVTVSS,low polyreactivity
4,QVQLVETGGVLVQAGGSLRLSCAASGRIFPPNAMGWSRQAPGKEREFVASINRSGGRTYYADSVKGRFTISRDNAKNTVYLQMNSLKPEDTAVYYCAATGGYSCPLGVSWKYEYWGQGNQVTVSS,low polyreactivity
5,QVQLVESGGGLVQAGGSLRLSCAASGSIFPQYAMGWYRQAPGKERELVASITDSGGRTYYADSVKGRFTISRDNAKNTVYLQMHSLKPEDTAVYYCAAVSLWWSDYYFVEYDYWGQGTQVTVSS,high polyreactivity
6,QVQLVESVGGLDQAGGSLRLSCAASGSTFKRYVMGWYRQAPGKERELVAAITWSGTRTYYADSVKGRFTLSRDNAKNTVYLQMNSLKPEDTAVYYCAARLYGGYDWGQGTQVTVSS,high polyreactivity
7,QVQLVESGGGLVQAGGSLRLSCAASCVRNAMGWYRQAPGKERELVAAITSGGNTNYADSVKGRFTISRDNAKNTVYLQMNSLKPEDTAVYYCAKDLLYYTQQGTGVVDYDYWGQGTQVTVSS,low polyreactivity
8,QVQLVESGGVLVQAGGSLRLSCAASGITFSRNAMGWYRQAPGKEMELVAAITWNGGRTYYADSVKGRFTISRDNAKNTVYLPMNSLKPEATAVYYCAADYDYPDYYAPSWPGYNYWGQVTQVTVSS,low polyreactivity
9,QVQLVESGGGLVQAGGSLRLSCAASGRTFYGYDMGWYRQAPGKERELVATISSGGSTNYADSVKGRFTISRDNAKNTVYLQMHSLKPEDTAVYYCIARRFSGYRKGLRPYGSGMNYWGQGTQVTVSS,low polyreactivity
10,QVQLVESGGGLVQAGGSLRLSCAASGSISKINAMGWYRQAPGKERELVAAINTGDSTYYADSVKGRFTISRDNAKNTVYLQMNCLKPEDTAVYYCAAEGSPTGYDYWGQGTQVTVSS,low polyreactivity
11,QVQLVESGGGLVQAGGSLRLSCAASGITFYFNAMGWYRQAPGKERELVAAISFSGGGTYYADSVKGRFTISRDNAKNTVYLQMTSLKPEDTAVYYCNADYGRGTLRSIYDYWGQGTQVTVSS,low polyreactivity
12,QVQHVESRGCLLQAGGSLRLSCAASGITFRYYTMGWYRQAPGKESELVAAITWSGSSTYYAVSVKGRFTISRDNAKNTVYLQMNSLKPEHTAVYYCAKPYHQRSAKVDYWGQGTQVTVSS,low polyreactivity
13,QVQLVESGAGLVQAGGSLRLSCAASGRTFKTYAMAWYRQAPGKERELVAAISRDGRTYYADSVKGRFTISRDNAKNTVYLQMNSLKPEDTAVYYCAKDASVWPWWGYRGDYWGQGTQVTVSS,low polyreactivity
14,QVQLVESGGGLVQAGGSLRLSCAASGSTFGHYAMGWYRQAPGKERELVAAISWSGGSTSYADSVKGRFTISRDNAKNTVYLQMNSLKPEDTAVYYCNKRQEWFHFPYTRVYYWGQGTQLTVSS,low polyreactivity
15,QVQHVESGGGLVQAGGSLRLSCAASGFTSIMYAMGWYRQAPGKERDLVASISISDGSTYYADSVKGRFTISRDNAKNTVYLQMNILKPEDTAVYYCAADVYVWYTYSYDYWGQGTKVTVSS,low polyreactivity
16,QVQLVESGGGLVHAGGSLRLSCAASGITFSDNTMGWYRQAPGKERELVAAISWRGGRTYYADSVKGRFTISRDYAKNTVSLQMNSLKPEDTAVYYCNAVTSSKARSSSYDYWGQGTQVTVSS,high polyreactivity
17,QVQLVESGGGLVQAGGSLRLSCAASGNTFTGYAMGWYREAPGKERELVAAITRSGRTYYADSVKGRFTISRDNAKNTVYLQMTSLKPEDTAVYYCAADRRYVKYYYSGQGTQVTVSS,high polyreactivity
18,QVQLVESGGCLVQAGGSLRLSCAATGSIFYGNTMVWYRQAPGKDRELLAAISSGGSTKYADSVKGRFTISRDNAKNTVYLQMNSLKPEDTAVYYCAADLPRYWVTWMDYRGQGTQVTVSS,low polyreactivity
19,QVQLVESGGGLVQAGGSLRLSCAASGLTIWRYAMGWYRQAPGKEREFVATISQNGGRTYYADSVKGRFTISRDNAKNTVYLQMQSLKPEDTAVYYCAADDWRWGYDYWGQGTQVTVSS,high polyreactivity
20,QVQLVESGGGLVQAGGSLRLSCAASGLTFDSNVMRWYRQAHGKEMELVAAITSSGRTYYADSVKGRFTISRDNAKNTFYLQMNSLKPEDTAVYYCAARNLAYTRKGYYYWGQGTQVTVSS,high polyreactivity
21,QVQLEESGGGIVQAGGSLRLSCAASGRIFYHYAMGGYRKAPGKEREWVAAISGSGGSTYYADSVKGGFTISRYNAKNTVYLQMNSLNPEDTAVFYCSTSGPQYYARNFDYCGQGTQVTVSS,low polyreactivity
22,QVQLVESGGGLVQAGGSLSLSCAASGSIFDYYDMGWYRQSPGKERQLVAAITGSGGNTYYADSVKGRFTISRDNAKNTVYLQMNSLKPEDTAVYYCAAYGLYGAHTGYGSWGQCTQVTVSS,high polyreactivity
